The record followed here is US20230212294A1 (MINGHUI PHARMACEUTICAL SHANGHAI, published 2023).

For assay [1], the target named is T1, B7-H3 on CHOK cells overexpressing B7-H3.
T1 construct: whole, on cells; also called CHO cells that artificially express B7-H3; B7-H3-expressing CHO cells
T1 sequence (Q5ZPR3 whole entry, species assumed, looked up): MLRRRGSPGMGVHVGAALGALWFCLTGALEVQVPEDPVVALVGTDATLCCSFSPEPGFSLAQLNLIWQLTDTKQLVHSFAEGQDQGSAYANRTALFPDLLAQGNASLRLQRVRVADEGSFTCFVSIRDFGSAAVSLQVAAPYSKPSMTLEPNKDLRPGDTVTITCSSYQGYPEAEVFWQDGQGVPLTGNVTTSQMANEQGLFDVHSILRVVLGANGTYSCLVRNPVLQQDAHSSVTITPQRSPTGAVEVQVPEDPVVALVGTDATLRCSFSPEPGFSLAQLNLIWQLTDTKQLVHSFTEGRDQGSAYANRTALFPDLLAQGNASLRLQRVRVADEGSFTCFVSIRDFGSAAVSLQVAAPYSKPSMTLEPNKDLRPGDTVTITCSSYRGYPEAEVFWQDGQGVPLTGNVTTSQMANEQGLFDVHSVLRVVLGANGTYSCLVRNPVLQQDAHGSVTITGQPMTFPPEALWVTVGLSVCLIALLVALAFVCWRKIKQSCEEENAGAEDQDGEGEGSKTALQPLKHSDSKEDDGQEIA
Put plainly: flow cytometry on CHOK cells overexpressing B7-H3. How it is done: (§1) CHOK cells overexpressing B7-H3 or NCI-H322 cells endogenously expressing B7-H3 were added to a round-bottom 96-well plate at 100,000 cells per well, centrifuged to remove the supernatant, and then added with a gradient-diluted anti-B7-H3 antibody and incubated at 4 degrees for 1 h. After incubation, the cells were washed twice with FACS buffer (PBS containing 2% FBS), then added with fluorescent-labeled goat anti-human secondary antibody (Abcam, ab98596) and incubated for 0.5 h. After incubation, the cells were washed twice with FACS buffer, then resuspended with FACS buffer and detected with flow cytometry (Beckman, cytoFlex).
Background: In flow cytometry, cells or beads pass a laser one at a time.

The target of assay [2] is T2, B7-H3 endogenously expressed on human tumor cell lines (human, UniProt Q5ZPR3 29-534).
T2 construct: whole, on cells; The cell line is named in the assay or readout field of each row; also called NCI-H322 cells endogenously expressing B7-H3; B7-H3-positive human tumor cell lines NCI-H1975, BxPC-3, Calu-6
T2 sequence (looked up): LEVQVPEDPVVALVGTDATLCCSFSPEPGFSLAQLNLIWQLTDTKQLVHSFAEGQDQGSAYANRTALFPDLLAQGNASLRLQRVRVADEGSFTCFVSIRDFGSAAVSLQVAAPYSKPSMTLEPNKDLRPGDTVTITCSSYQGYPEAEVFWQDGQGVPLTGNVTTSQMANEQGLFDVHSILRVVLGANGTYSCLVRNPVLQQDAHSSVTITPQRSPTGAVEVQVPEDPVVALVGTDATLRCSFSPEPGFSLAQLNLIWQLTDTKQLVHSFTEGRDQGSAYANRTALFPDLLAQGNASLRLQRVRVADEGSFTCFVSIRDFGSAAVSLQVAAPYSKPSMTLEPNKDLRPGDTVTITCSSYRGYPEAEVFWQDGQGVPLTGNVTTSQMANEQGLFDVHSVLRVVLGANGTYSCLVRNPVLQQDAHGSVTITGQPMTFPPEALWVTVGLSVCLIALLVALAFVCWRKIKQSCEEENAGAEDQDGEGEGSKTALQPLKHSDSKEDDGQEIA
Put plainly: flow cytometry on NCI-H322 cells. The procedure: as §1

B1: IL-P7-C05-H3L1 (antibody, V domains shown)
VH: EVQLVESGGGLVQPGGSLRLSCAASGFTFSSYGMSWVRQAPGKGLELVAAINSNGGSTYYADSVKGRFTISRDNAKNTLYLQMSSLRAEDTAVYYCTRNEEFRRGLAYWGQGTLVTVSS
VL: DIQMTQSPSSLSASVGDRVTITCRASENIYSNLAWYQQKPGKAPKLLVYAATNLADGVPSRFSGSGSGTDYTLTISSLQPEDFATYYCQHFWGTPPWTFGQGTKLEIK
notes: Humanized from IL-P7-C05; full-length antibody; also called ILP7C05huVH3 + ILP7C05huVL1
What is called EC50 is the concentration giving half of the maximal effect. A lower EC50 goes with higher potency in that assay. As for B1, the EC50 worked out at 0.454 µg/mL in assay [1] and 0.0109 µg/mL in assay [2].

B2: IL-P7-C05-H2L2 (antibody, V domains shown)
VH: EVQLVESGGGLVQPGGSLRLSCAASGFTFSSYGMSWVRQAPGKGLELVATINSNGGTTYYADSVKGRFTISRDNAKNTLYLQMSSLRAEDTAVYYCTRNEEFRRGLAYWGQGTLVTVSS
VL: DIQMTQSPSSLSASVGDRVTITCRASENIYSNLAWYQQKPGKAPKLLVYAATNLQSGVPSRFSGSGSGTDYTLTISSLQPEDFATYYCQHFWGTPPWTFGQGTKLEIK
notes: Humanized from IL-P7-C05; full-length antibody; also called ILP7C05huVH2 + ILP7C05huVL2
Take B2: the EC50 in assay [1] is 0.455 µg/mL; in assay [2] it was 0.0145 µg/mL.

B3: IL-P7-C05-H3L3 (antibody, V domains shown)
VH: EVQLVESGGGLVQPGGSLRLSCAASGFTFSSYGMSWVRQAPGKGLELVAAINSNGGSTYYADSVKGRFTISRDNAKNTLYLQMSSLRAEDTAVYYCTRNEEFRRGLAYWGQGTLVTVSS
VL: DIQMTQSPSSLSASVGDRVTITCRASENIYSNLAWYQQKPGKAPKLLIYAASNLQSGVPSRFSGSGSGTDYTLTISSLQPEDFATYYCQHFWGTPPWTFGQGTKLEIK
notes: Humanized from IL-P7-C05; full-length antibody; also called ILP7C05huVH3 + ILP7C05huVL3
Consider B3, for which the EC50 in assay [1] stood at 0.431 µg/mL; in assay [2] it was 0.0106 µg/mL.

B4: IL-P7-C05-H2L1 (antibody, V domains shown)
VH: EVQLVESGGGLVQPGGSLRLSCAASGFTFSSYGMSWVRQAPGKGLELVATINSNGGTTYYADSVKGRFTISRDNAKNTLYLQMSSLRAEDTAVYYCTRNEEFRRGLAYWGQGTLVTVSS
VL: DIQMTQSPSSLSASVGDRVTITCRASENIYSNLAWYQQKPGKAPKLLVYAATNLADGVPSRFSGSGSGTDYTLTISSLQPEDFATYYCQHFWGTPPWTFGQGTKLEIK
notes: Humanized from IL-P7-C05; full-length antibody; also called ILP7C05huVH2 + ILP7C05huVL1
As to B4, the half-maximal effective concentration (EC50) was determined as 0.426 µg/mL in assay [1] and 0.0144 µg/mL in assay [2].

B5: IL-P7-C05-H1L1 (antibody, V domains shown)
VH: EVQLVESGGGLVQPGGSLRLSCAASGFTFSSYGMSWVRQAPGKGLELVATINSNGGTTYYPDSVKGRFTISRDNAKHTLYLQMSSLRAEDTAVYYCTRNEEFRRGLAYWGQGTLVTVSS
VL: DIQMTQSPSSLSASVGDRVTITCRASENIYSNLAWYQQKPGKAPKLLVYAATNLADGVPSRFSGSGSGTDYTLTISSLQPEDFATYYCQHFWGTPPWTFGQGTKLEIK
notes: Humanized from IL-P7-C05; full-length antibody; also called ILP7C05huVH1 + ILP7C05huVL1
For the molecule B5, the EC50 came to 0.426 µg/mL in assay [1] and 0.0107 µg/mL in assay [2].

B6: IL-P7-C05-H4L1 (antibody, V domains shown)
VH: EVQLVESGGGLVQPGGSLRLSCAASGFTFSSYAMSWVRQAPGKGLELVAAINSNGGSTYYADSVKGRFTISRDNAKNTLYLQMSSLRAEDTAVYYCTRNEEFRRGLAYWGQGTLVTVSS
VL: DIQMTQSPSSLSASVGDRVTITCRASENIYSNLAWYQQKPGKAPKLLVYAATNLADGVPSRFSGSGSGTDYTLTISSLQPEDFATYYCQHFWGTPPWTFGQGTKLEIK
notes: Humanized from IL-P7-C05; full-length antibody; also called ILP7C05huVH4 + ILP7C05huVL1
Turning to B6, the EC50 in assay [1] turned out to be 0.468 µg/mL; in assay [2], 0.0138 µg/mL.

B7: IL-P5-C06-H2L3 (antibody, V domains shown)
VH: QVQLVQSGAEVKKPGASVKVSCKGSGYTFTDYAIHWGRQAPGQGLEWIGIINTYNGNSNYAQKFQGRATMTRDTSTSTAYMELSRLRSEDTAVYYCARNYGSSFNWYFDVWGQGTTVTVSS
VL: DIQLTQSPSSLSASVGDRVTITCRASSSISSNYLHWYQQKPGKAPKLLIYSTSNLASGVPSRFSGSGSGTDFTLTISSLQPEDFATYYCQQYSGYPLTFGQGTKLELK
notes: Humanized from IL-P5-C06; full-length antibody; also called ILP5C06huVH2 + ILP5C06huVL3
As to B7, the EC50 in assay [1] is 0.826 µg/mL; in assay [2] it was 0.0618 µg/mL.

B8: IL-P5-C06-H3L4 (antibody, V domains shown)
VH: QVQLVQSGAEVKKPGASVKVSCKASGYTFTDYAIHWGRQAPGQGLEWMGIINTYNGNSNYAQKFQGRVTMTRDTSTSTAYMELSRLRSEDTAVYYCARNYGSSFNWYFDVWGQGTTVTVSS
VL: DIQMTQSPSSLSASVGDRVTITCRASSSISSNYLHWYQQKPGKAPKLLIYSTSNLQSGVPSRFSGSGSGTDFTLTISSLQPEDFATYYCQQYSGYPLTFGQGTKLELK
notes: Humanized from IL-P5-C06; full-length antibody; also called ILP5C06huVH3 + ILP5C06huVL4
Turning to B8, the EC50 in assay [1] was 1.13 µg/mL; in assay [2], 0.107 µg/mL.

B9: IL-P5-C06-H1L4 (antibody, V domains shown)
VH: QVQLVQSGAEVKKPGASVKVSCKGSGYTFTDYAIHWARQAPGQGLEWIGIINTYNGNSNYAQKFQGRATMTVDKSTSTAYMELSRLRSEDTAVYYCARNYGSSFNWYFDVWGQGTTVTVSS
VL: DIQMTQSPSSLSASVGDRVTITCRASSSISSNYLHWYQQKPGKAPKLLIYSTSNLQSGVPSRFSGSGSGTDFTLTISSLQPEDFATYYCQQYSGYPLTFGQGTKLELK
notes: Humanized from IL-P5-C06; full-length antibody; also called ILP5C06huVH1 + ILP5C06huVL4
Regarding B9, the EC50 in assay [1] is 0.596 µg/mL; in assay [2], 0.0436 µg/mL.

B10: IL-P5-C06-H2L2 (antibody, V domains shown)
VH: QVQLVQSGAEVKKPGASVKVSCKGSGYTFTDYAIHWGRQAPGQGLEWIGIINTYNGNSNYAQKFQGRATMTRDTSTSTAYMELSRLRSEDTAVYYCARNYGSSFNWYFDVWGQGTTVTVSS
VL: DIQLTQSPSSLSASVGDRITITCRASSSISSNYLHWYQQKPGKAPKLLIYSTSNLASGVPSRFSGSGSGTDFTLTISSVQPEDFATYYCQQYSGYPLTFGQGTKLELK
notes: Humanized from IL-P5-C06; full-length antibody; also called ILP5C06huVH2 + ILP5C06huVL2
For the molecule B10, the EC50 turned out to be 1.12 µg/mL in assay [1] and 0.0919 µg/mL in assay [2].

B11: IL-P5-C06-H1L1 (antibody, V domains shown)
VH: QVQLVQSGAEVKKPGASVKVSCKGSGYTFTDYAIHWARQAPGQGLEWIGIINTYNGNSNYAQKFQGRATMTVDKSTSTAYMELSRLRSEDTAVYYCARNYGSSFNWYFDVWGQGTTVTVSS
VL: DIQLTQSPSSMSASVGDRITITCRASSSISSNYLHWYQQKPGKSPKLLIYSTSNLASGVPSRFSGSGSGTDYTLTISSVQPEDFATYYCQQYSGYPLTFGQGTKLELK
notes: Humanized from IL-P5-C06; full-length antibody; also called ILP5C06huVH1 + ILP5C06huVL1
On to B11, for which the 50% effective concentration (EC50) in assay [1] was determined as 1.05 µg/mL; in assay [2], 0.0895 µg/mL.

B12: IL-P5-C06-H3L3 (antibody, V domains shown)
VH: QVQLVQSGAEVKKPGASVKVSCKASGYTFTDYAIHWGRQAPGQGLEWMGIINTYNGNSNYAQKFQGRVTMTRDTSTSTAYMELSRLRSEDTAVYYCARNYGSSFNWYFDVWGQGTTVTVSS
VL: DIQLTQSPSSLSASVGDRVTITCRASSSISSNYLHWYQQKPGKAPKLLIYSTSNLASGVPSRFSGSGSGTDFTLTISSLQPEDFATYYCQQYSGYPLTFGQGTKLELK
notes: Humanized from IL-P5-C06; full-length antibody; also called ILP5C06huVH3 + ILP5C06huVL3
On to B12, for which the EC50 in assay [1] came to 1.18 µg/mL; in assay [2], 0.137 µg/mL.

B13: IL-P5-C06-H2L4 (antibody, V domains shown)
VH: QVQLVQSGAEVKKPGASVKVSCKGSGYTFTDYAIHWGRQAPGQGLEWIGIINTYNGNSNYAQKFQGRATMTRDTSTSTAYMELSRLRSEDTAVYYCARNYGSSFNWYFDVWGQGTTVTVSS
VL: DIQMTQSPSSLSASVGDRVTITCRASSSISSNYLHWYQQKPGKAPKLLIYSTSNLQSGVPSRFSGSGSGTDFTLTISSLQPEDFATYYCQQYSGYPLTFGQGTKLELK
notes: Humanized from IL-P5-C06; full-length antibody; also called ILP5C06huVH2 + ILP5C06huVL4
With B13, the EC50 in assay [1] came to 0.747 µg/mL; in assay [2], 0.0576 µg/mL.

B14: IL-P5-C06-H1L3 (antibody, V domains shown)
VH: QVQLVQSGAEVKKPGASVKVSCKGSGYTFTDYAIHWARQAPGQGLEWIGIINTYNGNSNYAQKFQGRATMTVDKSTSTAYMELSRLRSEDTAVYYCARNYGSSFNWYFDVWGQGTTVTVSS
VL: DIQLTQSPSSLSASVGDRVTITCRASSSISSNYLHWYQQKPGKAPKLLIYSTSNLASGVPSRFSGSGSGTDFTLTISSLQPEDFATYYCQQYSGYPLTFGQGTKLELK
notes: Humanized from IL-P5-C06; full-length antibody; also called ILP5C06huVH1 + ILP5C06huVL3
Turning to B14, the EC50 in assay [1] came out at 0.941 µg/mL; in assay [2] it was 0.0829 µg/mL.
